Laboratory results as given in patent CN111620946A (JIANGSU DISEASE CONTROL AND PREVENTION CENTER JIANGSU …, dated 2020).

B1: FC11 (antibody, V domains shown)
VH: EVQLLESGGGVVQPGRSLRLSCAASGFTFSYYGMHWVRQAPGTGLEWVAVISYDGSNEYYADSVKGRFTISRDNSKNTLYLQMNSLRAEDTAVYYCAKAMFLGDSSGLTGLDMDVWGQGTTVTVSS
VL: DIELTQSPGTLSLSPGERATLSCRASQSVSSYLAWYQQKPGQAPRLLIYDASNRATGIPARFSGSGSGTDFTLTISSLEPEDFALYYCQQRGNWPPTFGGGTKLEIK
B2: FC08 (antibody, V domains shown)
VH: VQLLQQSGAEVKKPGSSVKVSCKASGGTFSSYAISWVRQAPGQGLEWMGGIIPILGIANYAQKFQGRVTITADKSTSTAYMELSSLRSEDTAVYYCVRERGYSGYGAAYYFDYWGQGTLVTVSS
VL: QSVLTQPPSVSGAPGQRVTISCTGSSSNIGAGYDVHWYQQLPGTAPKLLIYGNSNRPSGVPDRFSGSKSGTSASLAITGLQAEDEADYYCQSYDSSLSGSVFGGGTKLTVL
B3: FC05 (antibody, V domains shown)
VH: VQLLEQSGAEVKKPGASVRVSCKVSGYTLPEVAMHWVRQAPGKGLEWMGGFDPEDGETIYAQKFQGRVTMTEDTSTDTAYMELSSLRSEDTAVYYCATTTPFSSSFWFDPWGQGTLVTVSS
VL: QSVLTQAPSVSGAPGQKVTISCSGSSSNIGNNYVSWYQQLPGTAPKLLIYDNNKRPSGIPDRFSGSKSGTSATLGITGLQTGDEADYYCGTWDSSLSAVVFGGGTKLTVL

Key:
[1] = target: SARS-CoV-2 S蛋白 (spike) on live virus, 分离株 BetaCoV/JS03/human/2020 (SARS-CoV-2, UniProt P0DTC2 14-1273); assay: cell-based or functional assay
[2] = target: 重组SARS-CoV-2刺突蛋白胞外区 (extra cellular domain of spike protein) (SARS-CoV-2, UniProt P0DTC2 14-1213); assay: SPR, Biacore 8K, S-ECD coupled to a CM5 chip, antibody 125nM~7.8nM in solution
[3] = target: SARS-CoV-2 S蛋白 (spike) on live virus, 分离株 BetaCoV/JS03/human/2020 (SARS-CoV-2, UniProt P0DTC2 14-1273); assay: cell-based or functional assay; remark: listed apart in the source

Binder | IC50(ng/ml), 体外中和实验 (live virus, Vero E6, CPE) [1] [ng/mL] | Kd [2] [nM] | IC50(ng/ml), 体外中和实验 (live virus, Vero E6, CPE) [3] [ng/mL]
B1 | 818 | 0.5 | –
B2 | 325 | 0.8 | –
B3 | – | – | 142
